Assay results from patent US5952463.

Experiments:
Thermolysin [1] = molecular target: Thermolysin
Subtilisin [2] = molecular target: Subtilisin
Trypsin [3] = molecular target: Trypsin
Chymotrypsin [4] = molecular target: Chymotrypsin
[5] = molecular target: purified secretion-type Kex2 proteinase (sKEX2 product, Saccharomyces yeast) (Saccharomyces yeast) (UniProt P13134); design: unit not given beside the values
Thermolysin [6] = molecular target: Thermolysin; remark: listed apart in the source
Subtilisin [7] = molecular target: Subtilisin; remark: listed apart in the source
Trypsin [8] = molecular target: Trypsin; remark: listed apart in the source
Chymotrypsin [9] = molecular target: Chymotrypsin; remark: listed apart in the source

Inhibition Ratio (%), casein Folin method (Thermolysin [1]): -5.5%
Inhibition Ratio (%), casein Folin method (Subtilisin [2]): 87%
Inhibition Ratio (%), casein Folin method (Trypsin [3]): 2.4%
Inhibition Ratio (%), casein Folin method (Chymotrypsin [4]): -19%
IC50 (amount of Kexstatin which inhibits the activity of 1 µg of Kex2 proteinase by 50%) (µg (per 1 µg of Kex2 proteinase)) [5]: 1.4
Inhibition Ratio (%), casein Folin method, enzyme at 1/10 molar ratio to 0.5 µg of Kexstatin (Thermolysin [6]): 8%
Inhibition Ratio (%), synthetic fluorescent substrate Suc-Ala-Ala-Pro-Phe-MCA, enzyme at 1/10 molar ratio to 0.5 µg of Kexstatin (Subtilisin [7]): 99.5%
Inhibition Ratio (%), casein Folin method, enzyme at 1/10 molar ratio to 0.5 µg of Kexstatin (Pepsin): 0%
Inhibition Ratio (%), synthetic fluorescent substrate Bz-Arg-MCA, enzyme at 1/10 molar ratio to 0.5 µg of Kexstatin (Trypsin [8]): 49.2%
Inhibition Ratio (%), synthetic fluorescent substrate Suc-Ala-Ala-Pro-Phe-MCA, enzyme at 1/10 molar ratio to 0.5 µg of Kexstatin (Chymotrypsin [9]): 0%
B1: Kexstatin (proteinase inhibitor purified from the culture fluid of Streptomyces platensis Q268) (protein)
chain: GLYAPTELVLTVGQGESRATATVQRAVTLSCMPGARGSHPNPLGACTQLRAVAGDFNAITAATSDRLCTKEWNPLVVTADGVWQGKRVSYSYTFANRCEMNIDSDTVFNF
